Our source for the Kd values is paper PMC6382854 (2019).

For this experiment, the target named is taxol-stabilized microtubules (polymerized porcine tubulin) (porcine, UniProt P02550 1-451; P02554 1-445).
Chain of taxol-stabilized microtubules (polymerized porcine tubulin) (P02550 whole entry, chain 1 of 2): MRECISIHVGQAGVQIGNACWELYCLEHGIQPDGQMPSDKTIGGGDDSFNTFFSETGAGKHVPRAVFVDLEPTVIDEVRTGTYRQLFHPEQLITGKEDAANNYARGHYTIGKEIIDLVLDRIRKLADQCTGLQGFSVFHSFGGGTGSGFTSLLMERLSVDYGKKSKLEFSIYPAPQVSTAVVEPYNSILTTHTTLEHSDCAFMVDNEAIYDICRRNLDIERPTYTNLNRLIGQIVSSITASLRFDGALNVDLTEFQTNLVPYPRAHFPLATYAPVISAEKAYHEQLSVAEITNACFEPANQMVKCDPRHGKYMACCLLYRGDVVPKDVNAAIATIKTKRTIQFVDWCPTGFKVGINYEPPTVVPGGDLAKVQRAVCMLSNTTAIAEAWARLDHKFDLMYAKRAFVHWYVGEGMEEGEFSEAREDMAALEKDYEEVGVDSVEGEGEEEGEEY
Chain of taxol-stabilized microtubules (polymerized porcine tubulin) (P02554 whole entry, chain 2 of 2): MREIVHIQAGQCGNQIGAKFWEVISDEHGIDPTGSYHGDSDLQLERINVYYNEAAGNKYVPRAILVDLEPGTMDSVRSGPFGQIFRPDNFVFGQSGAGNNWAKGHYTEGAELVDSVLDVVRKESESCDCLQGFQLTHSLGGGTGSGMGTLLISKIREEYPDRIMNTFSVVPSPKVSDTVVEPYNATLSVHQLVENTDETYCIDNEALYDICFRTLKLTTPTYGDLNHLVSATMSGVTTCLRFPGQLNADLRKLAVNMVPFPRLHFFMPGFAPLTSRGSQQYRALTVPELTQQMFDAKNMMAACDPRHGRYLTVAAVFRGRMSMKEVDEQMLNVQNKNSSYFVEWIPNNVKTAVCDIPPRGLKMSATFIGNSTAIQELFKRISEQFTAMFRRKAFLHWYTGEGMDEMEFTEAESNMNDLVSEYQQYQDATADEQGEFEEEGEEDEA

B1: 6xHis-tagged CC1ΔC223 (cytosolic N-terminal part of COMPANION OF CELLULOSE SYNTHASE 1, residues 1-120) (domain or fragment)
chain: MHAKTDSEVTSLAASSPARSPRRPVYYVQSPSRDSHDGEKTATSFHSTPVLSPMGSPPHSHSSMGRHSRESSSSRFSGSLKPGSRKVNPNDGSKRKGHGGEKQWKECAVIEEEGLLDDGD
The molecule B1 showed a Kd of 6.9 µM.

B2: 6xHis-tagged CC1ΔC223YYAA (domain or fragment)
chain: MHAKTDSEVTSLAASSPARSPRRPVAAVQSPSRDSHDGEKTATSFHSTPVLSPMGSPPHSHSSMGRHSRESSSSRFSGSLKPGSRKVNPNDGSKRKGHGGEKQWKECAVIEEEGLLDDGD
The molecule B2 yielded a Kd of 16.3 µM.

For orientation: Kd means a measure of binding affinity in units of concentration.
